In patent publication US20220332804A1 (CSL INNOVATION, published 2022):

Columns and labels:
Assay in all cases: SPR; KD relative to WT C2;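 further: biacore SPR at 37 °C, anti-C2 mAbs captured on an anti-human IgG chip, alanine or serine C2 surface mutants tested, KD from 1:1 fit compared with wild-type C2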
human C2 N380A = biological target: T1, human C2 N380A (human, UniProt P06681 21-752)
T1 sequence: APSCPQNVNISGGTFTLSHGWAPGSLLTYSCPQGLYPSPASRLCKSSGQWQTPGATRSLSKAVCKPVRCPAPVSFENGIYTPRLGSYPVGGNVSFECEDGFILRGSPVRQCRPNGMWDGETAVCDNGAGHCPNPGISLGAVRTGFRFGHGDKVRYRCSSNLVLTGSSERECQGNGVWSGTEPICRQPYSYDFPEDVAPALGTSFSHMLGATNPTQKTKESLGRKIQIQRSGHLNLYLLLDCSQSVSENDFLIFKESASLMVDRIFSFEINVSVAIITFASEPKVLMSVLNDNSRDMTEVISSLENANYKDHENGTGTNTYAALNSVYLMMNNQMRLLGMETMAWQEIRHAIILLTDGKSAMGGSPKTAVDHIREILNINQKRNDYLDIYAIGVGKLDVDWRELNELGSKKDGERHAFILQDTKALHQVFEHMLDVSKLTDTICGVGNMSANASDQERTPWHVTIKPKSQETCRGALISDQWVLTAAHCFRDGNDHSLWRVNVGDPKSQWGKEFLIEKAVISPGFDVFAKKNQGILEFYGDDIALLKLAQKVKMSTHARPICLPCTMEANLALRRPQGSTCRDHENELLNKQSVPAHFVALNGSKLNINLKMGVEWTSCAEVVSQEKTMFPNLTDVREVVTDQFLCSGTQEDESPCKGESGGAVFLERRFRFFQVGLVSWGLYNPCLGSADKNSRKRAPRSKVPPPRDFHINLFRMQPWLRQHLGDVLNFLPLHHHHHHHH
Experimental: (§1) Surface plasmon resonance (SPR, Biacore) was used for all binding affinity analyses. In brief, goat anti-human IgG was directly immobilised onto the carboxymethyl dextran surface of CM5 sensorchips to approximately 12,000 RU using standard NHS/EDC chemistry at pH 5. The immobilised antibody surface was pre-conditioned with ten injections of polyclonal human IgG (Privigen 60 s) prepared at 1 μg/mL. Ligands (anti-C2 mAbs) were captured at the beginning of each cycle as described below. An adjacent spot or flow cell in which only Polyclonal IgG was capture was used as a reference surface. The goat anti-human IgG Fc antibody surface was regenerate in 100 mM H3PO4, injected for 45 seconds at the end of each cycle. Experiments were performed at 37° C. and the flow rate of each experiment was kept constant at 30 μL/min.
(§2) Sensogram data was double-referenced against a reference anti-IgG surface (i.e. minus anti-C2 mAb) and blank buffer injections obtained within each experiment. The binding data was fit to 1:1 (kinetic or steady-state) model using local Rmax and null refraction index (RI=0) when appropriate. Buffers and solutions were filtered (0.22 μm) prior to use.
(§3) The C2 mutants were designed to test the importance of surface exposed residues for antibody binding. Residues located at either the N-terminal VWA domain or C-terminal protease domain of C were replaced by either alanine or serine and tested for binding against anti-C2 antibodies.

human C2 M452A = biological target: T2, human C2 M452A (human, UniProt P06681 21-752)
T2 sequence: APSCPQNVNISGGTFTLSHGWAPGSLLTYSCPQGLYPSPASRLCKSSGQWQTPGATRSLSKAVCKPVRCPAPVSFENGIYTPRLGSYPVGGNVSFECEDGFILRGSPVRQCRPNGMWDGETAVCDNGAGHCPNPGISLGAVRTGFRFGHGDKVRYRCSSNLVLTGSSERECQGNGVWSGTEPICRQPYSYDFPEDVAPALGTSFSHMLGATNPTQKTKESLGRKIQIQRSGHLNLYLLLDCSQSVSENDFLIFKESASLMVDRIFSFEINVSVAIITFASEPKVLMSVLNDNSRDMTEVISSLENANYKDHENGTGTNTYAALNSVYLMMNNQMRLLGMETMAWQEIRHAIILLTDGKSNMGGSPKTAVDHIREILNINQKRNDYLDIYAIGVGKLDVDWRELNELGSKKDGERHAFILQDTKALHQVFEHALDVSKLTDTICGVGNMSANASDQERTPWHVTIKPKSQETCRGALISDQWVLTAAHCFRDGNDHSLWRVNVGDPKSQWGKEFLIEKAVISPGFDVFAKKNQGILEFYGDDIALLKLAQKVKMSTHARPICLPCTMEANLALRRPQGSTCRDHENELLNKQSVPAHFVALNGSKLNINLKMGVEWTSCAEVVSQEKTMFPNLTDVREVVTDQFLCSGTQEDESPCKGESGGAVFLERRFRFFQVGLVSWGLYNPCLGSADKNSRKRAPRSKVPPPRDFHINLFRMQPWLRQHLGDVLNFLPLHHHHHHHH
Experimental: as §1, §2, §3

human C2 H451A = biological target: T3, human C2 H451A (human, UniProt P06681 21-752)
T3 sequence: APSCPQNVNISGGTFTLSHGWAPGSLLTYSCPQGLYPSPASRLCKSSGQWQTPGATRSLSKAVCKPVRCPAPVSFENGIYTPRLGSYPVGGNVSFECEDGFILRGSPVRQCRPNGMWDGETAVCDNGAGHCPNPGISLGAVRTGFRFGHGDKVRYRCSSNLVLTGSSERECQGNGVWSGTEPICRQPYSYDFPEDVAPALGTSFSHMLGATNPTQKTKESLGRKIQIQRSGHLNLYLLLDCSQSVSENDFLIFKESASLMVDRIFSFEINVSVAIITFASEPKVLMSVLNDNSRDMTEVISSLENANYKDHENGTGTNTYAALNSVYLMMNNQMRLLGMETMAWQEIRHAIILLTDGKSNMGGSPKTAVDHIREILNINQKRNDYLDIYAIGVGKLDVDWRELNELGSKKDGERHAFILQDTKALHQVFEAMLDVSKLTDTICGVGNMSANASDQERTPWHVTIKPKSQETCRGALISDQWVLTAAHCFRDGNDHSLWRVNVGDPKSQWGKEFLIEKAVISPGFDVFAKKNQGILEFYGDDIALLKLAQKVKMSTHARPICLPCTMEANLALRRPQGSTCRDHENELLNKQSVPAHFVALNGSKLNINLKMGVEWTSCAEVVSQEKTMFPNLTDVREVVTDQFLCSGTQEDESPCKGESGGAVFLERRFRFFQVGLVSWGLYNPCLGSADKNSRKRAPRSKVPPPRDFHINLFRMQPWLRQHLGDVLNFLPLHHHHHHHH
Experimental: as §1, §2, §3

human C2 D454A = biological target: T4, human C2 D454A (human, UniProt P06681 21-752)
T4 sequence: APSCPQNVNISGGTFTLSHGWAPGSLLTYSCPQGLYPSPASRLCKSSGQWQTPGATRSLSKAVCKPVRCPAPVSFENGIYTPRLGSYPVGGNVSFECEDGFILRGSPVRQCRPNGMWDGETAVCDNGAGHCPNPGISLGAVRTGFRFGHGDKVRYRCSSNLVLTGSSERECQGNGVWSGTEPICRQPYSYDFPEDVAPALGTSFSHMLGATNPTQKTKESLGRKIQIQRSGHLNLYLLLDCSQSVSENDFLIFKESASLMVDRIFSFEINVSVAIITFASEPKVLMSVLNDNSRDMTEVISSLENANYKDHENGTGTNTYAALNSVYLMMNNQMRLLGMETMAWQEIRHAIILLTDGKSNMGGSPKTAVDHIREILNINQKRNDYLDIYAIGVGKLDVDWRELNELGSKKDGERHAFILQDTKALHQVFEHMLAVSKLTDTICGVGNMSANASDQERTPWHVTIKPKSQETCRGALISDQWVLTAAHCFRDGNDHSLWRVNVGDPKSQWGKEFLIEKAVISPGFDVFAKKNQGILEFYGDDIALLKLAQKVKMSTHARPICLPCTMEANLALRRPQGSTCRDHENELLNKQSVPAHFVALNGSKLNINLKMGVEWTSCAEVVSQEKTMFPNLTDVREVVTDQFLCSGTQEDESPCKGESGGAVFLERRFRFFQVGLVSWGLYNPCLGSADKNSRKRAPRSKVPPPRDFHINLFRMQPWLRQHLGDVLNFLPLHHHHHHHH
Experimental: as §1, §2, §3

Fold diff (human C2 N380A): 2 fold
Fold diff (human C2 M452A): 1 fold
Fold diff (human C2 H451A): 4 fold
Fold diff (human C2 D454A): 4 fold
B1: RF16-214 (antibody, V domains shown)
VH: EVQLLESGGGLVQPGGSLRLSCAASGFTFSWYQMMWVRQAPGKGLEWVSRIYPSGGGTAYADSVKGRFTISRDNSKNTLYLQMNSLRAEDTAVYYCARDAGYGDNWGQGTLVTVSS
VL: QSALTQPPSVSVSPGQTASITCSGDKLGEKYASWYQQKAGQSPVMVIYQDRKRPSGIPERFSGSNSGNTATLTISGTQAMDEADYYCQAWDTRAVVFGGGTKLTVLG
